Test results published in patent US20250296971A1, “GASTRIC INHIBITORY PEPTIDE RECEPTOR LIGANDS” (priority 2021, published 2025).
*1 amine or outer side, *2 acyl side, *3 side chain or, on linkers, in order; H or OH if unused. Bridges are numbered along the chain shown (N, C = ends). Primed or numbered codes have the meaning given here. Where no end group is shown, it is not given here. Side-chain parts run from the residue outwards. [ ]: non-standard residue; d: D form. The star is where a group is joined. (dE)(AGLU) = D-glutamic acid bearing 1-amino-1-deoxy-D-glucitol; 2,6‑lutidylidene = 2Lut, Cys-Cys crosslink via 2,6-lutidylidene; APAc″ = 4-amino-1-carboxymethylpiperidine, NC1CCN(CC(=O)*)CC1; dE(AGLU) = D-glutamic acid bearing 1-amino-1-deoxy-D-glucitol; Pro(trans-4-NH2) = O=C([C@@H]1C[C@@H](N[*:3])CN1[*:1])[*:2]; DOTA = O=C(O)CN1CCN(CC(=O)O)CCN(CC(=O)*)CCN(CC(=O)O)CC1; NODAGA = O=C(O)CN1CCN(CC(=O)O)CCN(C(CCC(=O)*)C(=O)O)CC1; 2Lut = 2,6-lutidylidene bridge between two thiols; Trp(5-Br) = N[C@@H](Cc1c[nH]c2ccc(Br)cc12)C(=O)O; Trp(5-Cl) = N[C@@H](Cc1c[nH]c2ccc(Cl)cc12)C(=O)O; Pyridine(2,6-diCH2) = c1cc(C[*:1])nc(C[*:2])c1; 2Lut″ = 2,6-lutidylidene linking two thiols; Pro(trans-4-F) = O=C(O)[C@@H]1C[C@@H](F)CN1; APAc = 4-amino-1-carboxymethylpiperidine; mXylylene = c1cc(C[*:1])cc(C[*:2])c1; Glutaryl = O=C(CCCC(=O)[*:2])[*:1]; PEG6 = NCCOCCOCCOCCOCCOCCOCCC(=O)O; AGLU = 1-amino-1-deoxy-D-glucitol; Hyp = O=C(O)[C@@H]1C[C@@H](O)CN1; dGlu(AGLU) = not defined here; Aic = NC1(C(=O)O)Cc2ccccc2C1; hCys = N[C@@H](CCS)C(=O)O; hSer = N[C@@H](CCO)C(=O)O; Api = NC1(C(=O)O)CCNCC1; Thp = NC1(C(=O)O)CCOCC1; AEEA = NCCOCCOCC(=O)O; Aib = CC(C)(N)C(=O)O

B1: HO-Succinyl-Trp-5Clw-Pro-Glu-leu-[Cys(3MeBn)-Aib-Leu-Ile-Cys]-NH2 (peptide)
peptide: W[Trp(5-Cl)]PE[dL]C[Aib]LIC-NH2
modifications: linker 6-10 via mXylylene; not fully specified (N-terminus); printed as HO-Succinyl-Trp-5Clw-Pro-Glu-leu-[Cys(3MeBn)-Aib-Leu-Ile-Cys]-NH2
B2: DOTA-O2Oc-glu(AGLU)-Asp-Trp-5Clw-Tap-Glu-leu-[Cys(2Lut)-Thp-Leu-Ile-Cys]-APAc-glu(AGLU)-NH2 (peptide)
peptide: DW[Trp(5-Cl)][Pro(trans-4-NH2)]E[dL]C[Thp]LIC-{APAc-(dE)(AGLU)-NH2}
modifications: linker 7-11 via Pyridine(2,6-diCH2); not fully specified (N-terminus); printed as DOTA-O2Oc-glu(AGLU)-Asp-Trp-5Clw-Tap-Glu-leu-[Cys(2Lut)-Thp-Leu-Ile-Cys]-APAc-glu(AGLU)-NH2

target: human Gastric Inhibitory Peptide Receptor (human) (UniProt P48546); experiment: FACS competition with GIP-057 on CHO-K1-hGIPR cells; pIC50 category A: >8.0
Sequence (P48546 22-466 limits assumed): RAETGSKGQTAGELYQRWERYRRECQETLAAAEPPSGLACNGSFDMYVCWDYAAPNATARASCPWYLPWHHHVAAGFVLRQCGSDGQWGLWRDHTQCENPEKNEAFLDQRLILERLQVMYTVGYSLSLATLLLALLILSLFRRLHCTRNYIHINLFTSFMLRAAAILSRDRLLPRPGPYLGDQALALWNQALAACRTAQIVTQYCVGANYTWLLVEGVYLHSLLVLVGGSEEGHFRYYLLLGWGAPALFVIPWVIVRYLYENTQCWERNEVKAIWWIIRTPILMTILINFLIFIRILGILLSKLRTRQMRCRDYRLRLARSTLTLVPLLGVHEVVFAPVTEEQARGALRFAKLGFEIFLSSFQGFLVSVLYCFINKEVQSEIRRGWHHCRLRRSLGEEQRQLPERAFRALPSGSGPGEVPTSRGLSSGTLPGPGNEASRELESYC

Row | pIC50 | Binder
1 | > 8 pic50 | {AGLU-Glutaryl}-DW[Trp(5-Cl)][Pro(trans-4-NH2)]E[dL]C[Api](NODAGA)LIC-{APAc-dE(AGLU)-NH2} (linker 7-11 via Pyridine(2,6-diCH2)) [AGLU-Glutar-Asp-Trp-5Clw-Tap-Glu-leu-[Cys(2Lut)-Apc(NODAGA)-Leu-Ile-Cys]-APAc-glu(AGLU)-NH2]
2 | > 8 pic50 | B1
3 | > 8 pic50 | Ac-DW[Trp(5-Cl)][Hyp]E[dL]C[Thp]LI[hCys]-NH2 (linker 7-11 via Pyridine(2,6-diCH2)) [Ac-Asp-Trp-5Clw-Hyp-Glu-leu-[Cys(2Lut)-Thp-Leu-Ile-Hcy]-NH2]
4 | > 8 pic50 | Ac-DW[Trp(5-Cl)][Hyp]E[dL]C[Aic]LIC-NH2 (linker 7-11 via Pyridine(2,6-diCH2)) [Ac-Asp-Trp-5Clw-Hyp-Glu-leu-[Cys(2Lut)-Aic-Leu-Ile-Cys]-NH2]
5 | > 8 pic50 | {AGLU-Glutaryl-APAc″}-DW[Trp(5-Cl)][Hyp]E[dL]C[Api](DOTA)LIC-{dE(AGLU)-NH2} (linker 7-11 via Pyridine(2,6-diCH2)) [AGLU-Glutar-APAc-Asp-Trp-5Clw-Hyp-Glu-leu-[Cys(2Lut)-Apc(DOTA)-Leu-Ile-Cys]-glu(AGLU)-NH2]
6 | > 8 pic50 | {AGLU-Glutaryl}-DW[Trp(5-Cl)][Pro(trans-4-NH2)]E[dL]CK(DOTA)LIC-{APAc-dE(AGLU)-NH2} (linker 7-11 via 2,6‑lutidylidene) [AGLU-Glutar-Asp-Trp-5Clw-Tap-Glu-leu-[Cys(2Lut)-Lys(DOTA)-Leu-Ile-Cys]-APAc-glu(AGLU)-NH2]
7 | > 8 pic50 | Ac-DW[Trp(5-Cl)][Pro(trans-4-F)]E[dL]C[Thp]LIC-NH2 (linker 7-11 via Pyridine(2,6-diCH2)) [Ac-Asp-Trp-5Clw-4Tfp-Glu-leu-[Cys(2Lut)-Thp-Leu-Ile-Cys]-NH2]
8 | > 8 pic50 | {DOTA-dGlu(AGLU)-PEG6}-DW[Trp(5-Cl)][Pro(trans-4-NH2)]E[dL]C[Thp]LIC-{APAc-dGlu(AGLU)-NH2} (linker 7-11 via 2Lut; reading uncertain) [DOTA-glu(AGLU)-PEG6-Asp-Trp-5Clw-Tap-Glu-leu-[Cys(2Lut)-Thp-Leu-Ile-Cys]-APAc-glu(AGLU)-NH2]
9 | > 8 pic50 | Ac-QW[Trp(5-Cl)][Hyp]E[dL]C[Thp]LIC-NH2 (linker 7-11 via 2Lut″) [Ac-Gln-Trp-5Clw-Hyp-Glu-leu-[Cys(2Lut)-Thp-Leu-Ile-Cys]-NH2]
10 | > 8 pic50 | {AGLU-Glutaryl}-[hSer]W[Trp(5-Br)][Pro(trans-4-NH2)]E[dL]C[Api](DOTA)LIC-{APAc-dE(AGLU)-NH2} (linker 7-11 via Pyridine(2,6-diCH2)) [AGLU-Glutar-Hse-Trp-5Brw-Tap-Glu-leu-[Cys(2Lut)-Apc(DOTA)-Leu-Ile-Cys]-APAc-glu(AGLU)-NH2]
11 | > 8 pic50 | Ac-DW[Trp(5-Cl)][Hyp]Q[dL]C[Thp]LIC-NH2 (linker 7-11 via Pyridine(2,6-diCH2)) [Ac-Asp-Trp-5Clw-Hyp-Gln-leu-[Cys(2Lut)-Thp-Leu-Ile-Cys]-NH2]
12 | > 8 pic50 | B2
13 | > 8 pic50 | {AGLU-Glutaryl}-DW[Trp(5-Cl)][Pro(trans-4-NH2)]E[dL]C[Api]([Gly-NODAGA])LIC-{APAc-dE(AGLU)-NH2} (linker 7-11 via Pyridine(2,6-diCH2)) [AGLU-Glutar-Asp-Trp-5Clw-Tap-Glu-leu-[Cys(2Lut)-Apc(NODAGA-Gly)-Leu-Ile-Cys]-APAc-glu(AGLU)-NH2]
14 | > 8 pic50 | {DOTA-dGlu(AGLU)-AEEA}-DW[Trp(5-Cl)][Pro(trans-4-NH2)]E[dL]C[Thp]LIC-{APAc-dGlu(AGLU)-NH2} (linker 7-11 via 2Lut; reading uncertain) [DOTA-glu(AGLU)-O2Oc-Asp-Trp-5Clw-Tap-Glu-leu-[Cys(2Lut)-Thp-Leu-Ile-Cys]-APAc-glu(AGLU)-NH2]
15 | > 8 pic50 | Ac-DW[Trp(5-Cl)][Hyp]E[dL][hCys][Thp]LIC-NH2 (linker 7-11 via Pyridine(2,6-diCH2)) [Ac-Asp-Trp-5Clw-Hyp-Glu-leu-[Hcy(2Lut)-Thp-Leu-Ile-Cys]-NH2]
